# Measured values reported in PMC6779431.
# Target: RTP1S_C2-Strep (TM domain deletion mutant of RTP1S, 1-176 amino acids, with a Strep-tag at the C terminus) (mouse)
# Test: SEC-MALS; OH-Pak SB-804HQ column, 100 μl of 0.3 mg/ml, 20 mM phosphate buffer pH 8.0, 100 mM NaCl
substance,measurement,value
"RTP1S_C2-Strep (TM domain deletion mutant of RTP1S, 1-176 amino acids, with a Strep-tag at the C terminus) (domain or fragment)",stoichiometry N,2
